For five molecules, Kd results are on record in patent US20210095014A1 (NGM BIOPHARMACEUTICALS, published 2021).

Assay [1] deals with T1, SE1 peptide of human ANGPTL8 (amino acids 25-60) (human).
T1 construct: also called hSE1; hSE1 peptide
T1 peptide: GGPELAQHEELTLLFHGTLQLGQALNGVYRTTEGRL
Put plainly: BIACORE (SPR); humanized antibody Hz1E5. Background: Surface plasmon resonance follows binding to a sensor surface in real time, without labels.

For assay [2], the target named is T2, NusA-hANGPTL8 fusion protein (human, UniProt Q6UXH0 22-198).
T2 construct: Expressed in E. coli BL21 and captured on a chelating Sepharose column; also called hANGPTL8 (NusA-hANGPTL8 fusion protein); not shown: bacterial NusA protein, fusion partner
T2 sequence: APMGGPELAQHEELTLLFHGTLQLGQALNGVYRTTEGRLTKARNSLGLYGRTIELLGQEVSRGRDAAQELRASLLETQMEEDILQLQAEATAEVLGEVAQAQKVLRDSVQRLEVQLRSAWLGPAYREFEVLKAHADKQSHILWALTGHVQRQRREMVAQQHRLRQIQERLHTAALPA
Put plainly: BIACORE (SPR), antibody from hybridoma supernatant captured by anti-mouse Fc, NusA-hANGPTL8 injected, 25 C. The procedure: (§1) The binding affinities of antibodies 1E5, 1A8, and 1E9 to human ANGPTL8 were measured using a BIACORE system (GE Healthcare LifeSciences). Briefly, anti-mouse Fc antibody (Sigma-Aldrich) was immobilized on all four flow cells of a CM5 chip using amine coupling reagents (GE Healthcare LifeSciences). Antibody from hybridoma supernatants were captured on flow cells 2, 3, and 4 using flow cell 1 as a reference. The SE1 peptide of human ANGPTL8 (hSE1; SEQ ID NO:6), a corresponding SE1 peptide of cynomolgus monkey ANGPTL8 (cSE1; SEQ ID NO:67), or human ANGPTL8 was injected at a flow rate of 50 μL/min at 25° C. Kinetic data were collected over time and fit using the simultaneous global fit equation to yield affinity constants (KD values) for each antibody.
(§2) Assay results are shown in Table 4 and the BIACORE result for 1E5 binding to hANGPTL8 (NusA-hANGPTL8 fusion protein) is shown in FIG. 4.

The target in assay [3] is T3, SE1 peptide of cynomolgus monkey ANGPTL8 (amino acids 25-60) (cynomolgus monkey).
T3 construct: also called cSE1; cSE1 peptide
T3 peptide: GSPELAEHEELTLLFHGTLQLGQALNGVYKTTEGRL
Put plainly: BIACORE (SPR), antibody from hybridoma supernatant captured by anti-mouse Fc, peptide injected, 25 C. The procedure: as §1, §2

Assay [4] has as its target T1, SE1 peptide of human ANGPTL8 (amino …). Described as above. The procedure:
as §1, §2

For assay [5] the target is unchanged. Put plainly: BIACORE (SPR); chimeric 1E5 (murine variable regions, human Fc).

B1: humanized anti-ANGPTL8 antibody Hz1E5 (antibody, human IgG1, kappa, V domains shown)
VH: EVQLVQSGAEVKKPGSSVKVSCKASGYTFTDYTIHWVRQAPGQGLEWMGWFYPGSDNIKYNAKFKDRATLTADKSTSTAYMELSSLRSEDTAVYYCARHEAFSYYDVAWFAYWGQGTLVTVSS
VL: DVVMTQTPLSLPVTPGEPASISCRSSQSLVHSNGNTYLHWYLQKPGQSPQLLIYTVSNRFSGVPDRFSGSGSGSDFTLKISRVEAEDVGVYFCSQTTHFPYTFGQGTKVEIKR
notes: also called Hz1E5.A1
In general, Kd refers to a measure of binding affinity in units of concentration. In assay [1], B1 had a Kd of 900 pM.

B2: anti-ANGPTL8 antibody 1E5 (antibody, V domains shown)
VH: QVQLQQSGAELVKPGTSVRLSCKASGYTFTDYTIHWVKLRSGQGLEWIGWFYPGSDNIKYNAKFKDKATLTADKSSSTVYMDLGRLTSEDSAVYFCARHEAFSYYDVAWFAYWGQGTLVTVSA
VL: DVVMTQTPLSLPVSLGDQASISCRSSQSLVHSNGNTYLHWYLQKPGQSPKLLIYTVSNRFSGVPDRFSGSGSGSDFTLNFSRVEAEDLGVYFCSQTTHFPYTFGGGTKLEIK
notes: Mouse monoclonal antibody, tested from hybridoma supernatant and captured by anti-mouse Fc; also called parental 1E5 from hybridoma
Regarding B2, the dissociation constant Kd turned out to be 440 pM in assay [2], 670 pM in assay [3] and 410 pM in assay [4].

B3: anti-ANGPTL8 antibody 1E9 (antibody, V domains shown)
VH: QVQLQQSGTELVKPGASVKLSCKASGYTFTDYTIHWVKQRSGQGLEWIGWFYPGSDNIKFNAKFRDKATLTADKSSSTVYMELSRLTSEDSAVYFCARHEAFYVYDVAWFANWGQGTLVTVST
VL: DVVMTQTPLSLPVSLGDQASISCRSSQSLVHSNGNTYLHWFLQKPGQSPNLLIYTVSNRFSGVPDRFSGSGSGTDFTLKISRVEAGDLGVYFCSQSTHFPYTFGGGTKLEIK
notes: Mouse monoclonal antibody, tested from hybridoma supernatant and captured by anti-mouse Fc
Regarding B3, the values for the Kd in assay [2], in assay [3] and in assay [4] were 2100 pM, 1800 pM and 920 pM, respectively.

B4: chimeric 1E5 antibody (antibody, V domains shown)
VH: QVQLQQSGAELVKPGTSVRLSCKASGYTFTDYTIHWVKLRSGQGLEWIGWFYPGSDNIKYNAKFKDKATLTADKSSSTVYMDLGRLTSEDSAVYFCARHEAFSYYDVAWFAYWGQGTLVTVSA
VL: DVVMTQTPLSLPVSLGDQASISCRSSQSLVHSNGNTYLHWYLQKPGQSPKLLIYTVSNRFSGVPDRFSGSGSGSDFTLNFSRVEAEDLGVYFCSQTTHFPYTFGGGTKLEIK
notes: Contains 'the murine variable regions of 1E5 and a human Fc region'; also called chimeric antibody 1E5
B4 gave a Kd in assay [5] of 350 pM.

B5: anti-ANGPTL8 antibody 1A8 (antibody, V domains shown)
VH: QVQLQQSGAELVKPGASVKLSCKASGYTFTDYTIHWVKQRSGQGLEWIGWFYPGSDNIKYNEKFKDKATLTADKSSSIVYMELSRLTSEDSAVYFCARHEAYYVYDVAWFAYWGQGTLVTVSA
VL: DVVMTQTPLSLPVSLGDQASISCSSSQSLVHSNGNTFLHWFLQRPGQSPKLLIYTVSNRFSGVPDRFSGSGSGTDFTLKISRVEAEDLGVYFCSQSTHFPYTFGGGTTLEIK
notes: as for B3
In the case of B5, the Kd turned out to be 2500 pM in assay [2], 1040 pM in assay [3] and 800 pM in assay [4].
